These results are taken from the nanobody polyreactivity screen of Harvey et al. (2022).

The data set is described as follows: yeast display, Sf9 membrane polyspecificity reagent, FACS + sequencing; frameworks hold sequencing errors. Summed up: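 Polyreactivity labels are assigned by the sorting gate from which each nanobody was recovered. The gates were low and high (top ~1%), set on anti-HA fluorescence for expression and streptavidin fluorescence for reagent binding. Before sorting, galactose-induced (36–48 hours) yeast display cells were stained for 1 hour at 4 °C with 10% biotinylated, detergent-solubilized Sf9 membrane reagent.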
“QVQLVESGGGLVQAGGSLRLSCAASGLILNYYTMGWYRQAPGKERELVATISSSTGSTYYADSVKGRFTISRDNAKNTVYLQMNSLKPEDTAVYYCASDHWSYWQIYDYWGQGTQVTVSS”: the “polyreactivity (PSR sort gate)” value was “low polyreactivity”.

Consider “QVQLVESGGGLVQAGGSLRLSCAASGLILQYYVMGWYIQAPGKERELVAAITRSGGGTYYADSVKGRFTISRDNAKNTVYLQMNSLKPEDSAVYYCAAQRQYGKFDYWGQGTQVTVSS”, for which the “polyreactivity (PSR sort gate)” value is listed as “high polyreactivity”. Consider “QVQLVESGGGLVQAGGSLRLSCAASGLILYTYAMGWYRQAPGKERELVAAINSGGRTYYADSVKGRFTISRDNAKNTVYLQMNSLKPEDTAVYYCAADYGSRVRGFNYWGQGTQVTVSS”, for which the “polyreactivity (PSR sort gate)” value was “low polyreactivity”.

As for “QVQLVESGGGLVQAGGSLRLSCAASGLILYWYAMGWYRQAPGKERELVAVITRSGRTNYADSVKGRFTSSRDNAKNTVYLQMNSLKPEDTAVYYCAADYYTSFYSWPPYDYWGQGTQVTVSS”, the “polyreactivity (PSR sort gate)” value was “low polyreactivity”.

For “QVQLVESGGGLVQAGGSLRLSCAASGLISTYYVMGWYRQAPGQERELVAAIRASDASTYYADSVKGRFTISRDNAKNPVYLQMHSLKPEDTAVYYCAAETGFYSRFAFHRYNYWGQGTQVTVSS”, the “polyreactivity (PSR sort gate)” value is “low polyreactivity”. “QVQLVESGGGLVQAGGSLRLSCAASGLIYSAYAMGWYRQAPGKEREFVAAISRSGGITFYADSVKGRFTISRDNAKNTVYLQMNSLKPEDTAVYYCAARRSKYRRGGGYYWGQGTQVTVSS”: the “polyreactivity (PSR sort gate)” value was “high polyreactivity”. As for “QVQLVESGGGLVQAGGSLRLSCAASGLKFAHYAMGWYRQAPGKERELVAAISRSGGRTRYADSVKGRFTISRDQAKNTVYLQMNSLKAEDTAVYYCAAVGSVNYDADFDYWGQGTQVTVSS”, the “polyreactivity (PSR sort gate)” value is given as “high polyreactivity”. The value for “QVQLVESGGGLVQAGGSLRLSCAASGLNFRQYAMGWYRKAPGKERELVAAITVTGGTTYYADSVKGRFTISRDNAKNTVYLQMNSLKPEDTAVYYCATRANYVGWTQFGHGYDYWGQGTQVTVSS” was “low polyreactivity”. For the sequence “QVQLVESGGGLVQAGGSLRLSCAASGLNFYYYAMGWYRQAPGKESELVAAISGGGSTYYADSVKGRFTISRDNAKNTVYLQMNSLKPEDTAVYYCAASYWYPSWLYDYWGQGTQVTVSS”, the “polyreactivity (PSR sort gate)” value is given as “low polyreactivity”. Regarding “QVQLVESGGGLVQAGGSLRLSCAASGLNLKRYAMGCYTQAPGKERELVAAISKSGGSTYYADSVKGRFTISRDNAKNTVYLQMNSLKPEDTAVYYCAADSYNLWDDYWGQGTQVTVSS”, the “polyreactivity (PSR sort gate)” value is on record as “low polyreactivity”. Turning to “QVQLVESGGGLVQAGGSLRLSCAASGLPFQEYAMGWYRQAPGKEREFVAAISASGGSTYYADSVKGRFTISRDNAKNTVYLQMNSLKPEDTAVYYCNKYGTVGYGSYGYWGQGTQVTVSS”, the “polyreactivity (PSR sort gate)” value is “high polyreactivity”. In the case of “QVQLVESGGGLVQAGGSLRLSCAASGLSFQSYAMGWYRQAPGKERELVAAISRRSGSTYYADSVKGRFTISRDNAKNTVYLQMNSLKPEDTAVYYCTTRRGERGYWGQGTQVTVSS”, the “polyreactivity (PSR sort gate)” value is reported as “high polyreactivity”. As for “QVQLVESGGGLVQAGGSLRLSCAASGLSFYPNGMGWYREAPGKERELVAAITYSDGSTYYADSVKGRFSISRDNAKNTVYLQMNSLKPEDTAVYYGNRVTRWTYNYWGQGTQVTVSS”, the entry is “high polyreactivity”; as for “QVQLVESGGGLVQAGGSLRLSCAASGLTFADYAMGWYRQAPVKERELVAAISSSDTSTYYADSVKGRFTISRDNAKNTVYLQMNSLKPEDTAVYYCAADEGYVWPYYGWGFGKYDYWGQGTQVTVSS”, “low polyreactivity”. As for “QVQLVESGGGLVQAGGSLRLSCAASGLTFAGYAMGWYRQAPGKERELVAAITSGGSTYYADSVKGRFTISRDNAKNTVYLQMNSLKPEDTAVYYCAARRVRKALVGYGYWGQGTQVTVSS”, the entry is “high polyreactivity”; as for “QVQLVESGGGLVQAGGSLRLSCAASGLTFANYAIGWYRQAPGKERELVAAISTWSGGSTYYADSVKGRFTISRDNAKNTVYLQMNSLKPEDTAVYYCAARRYSRGRLPYDYWGQGTQVTVSS”, “high polyreactivity”. In the case of “QVQLVESGGGLVQAGGSLRLSCAASGLTFANYAMGWYRQAPGKERELVAAISTWSGGSTYYADSVKGRFTISRDHAKNTVYLQMNSLKPEDTAVYYCNTDRYWGKGDYWGQGTQVTVSS”, the “polyreactivity (PSR sort gate)” value is “high polyreactivity”. As for “QVQLVESGGGLVQAGGSLRLSCAASGLTFAPYVMGWYRQAPGKERELVPAISRSGGSTYYADSVKGRFTISRDNAKNTVYLQMNSLKPEDTAVYYCNRDVSLSAFDYWGQGTQVTVSS”, the “polyreactivity (PSR sort gate)” value is reported as “high polyreactivity”.

Take “QVQLVESGGGLVQAGGSLRLSCAASGLTFARNAMGWYRQAPGKERELVAAISSGGSTYYADSVKGRFTISRDNAKNPVYLQMNSLKPEDTAVYYCAARPIPRYYGKFWRVDYWGQGTQVTVSS”: the “polyreactivity (PSR sort gate)” value is “high polyreactivity”. On to “QVQLVESGGGLVQAGGSLRLSCAASGLTFASNALGWYRQAPWKERELVAGISRTGTTTYYADSVKGRFTISRDNAKNTVYLQMNSLKPEDTAVYYCAASKQAVKYRSQRYYYWGQGTQVTVSS”, for which the “polyreactivity (PSR sort gate)” value is given as “high polyreactivity”. Take “QVQLVESGGGLVQAGGSLRLSCAASGLTFASYAMGWYRQAPGKERDLVARISRSGGSTYYADSVKGRFTISRDNAKNTVYLQMNSLKPEDTAVYYCAADYIFRRYPVGGIYDYDYWGQGTQVTVSS”: the “polyreactivity (PSR sort gate)” value was “high polyreactivity”. As to “QVQLVESGGGLVQAGGSLRLSCAASGLTFASYAMGWYRQSPGKERELVARISRSGGSTYYADSVKGRFTISRDNAKNTVYLQMNSLKPEDTAVYYCAARNSYGNWRYYYWGQGTQVTVSS”, the “polyreactivity (PSR sort gate)” value was “high polyreactivity”. “QVQLVESGGGLVQAGGSLRLSCAASGLTFAYNGLGWYRQAPGKEGELVAEISASGASTYYADSVKGRFTISRDNAKNTVYLQMNSLKPEDTAVYYCAAPAPYDGHYSIYSWAYTDDYWGQGTQVTVSS”: the “polyreactivity (PSR sort gate)” value is reported as “low polyreactivity”. With “QVQLVESGGGLVQAGGSLRLSCAASGLTFAYYAMGWYRQAPGKERELVAAISYSGGSTYYADSVKGRFTISRDNANKTVYLQMNSLKPEDTAVYYCNRDRNSGFYRRYGYWGQGTQVTVSS”, the “polyreactivity (PSR sort gate)” value is “high polyreactivity”. The value for “QVQLVESGGGLVQAGGSLRLSCAASGLTFAYYAMGWYRQAPGKETELVAAISWNGARTYYADSVKGRFTISRDNSKNTVYLQMNSLKPEDTAVYYCAAVRSASSWQYIWLKYYYWGQGTQVTVSS” was “high polyreactivity”. Consider “QVQLVESGGGLVQAGGSLRLSCAASGLTFAYYDMGWYIQAPGKEREMVAAITSGGTTNYADSVKGSFTISRDNANNTVYFQMNSLKPEDTAVYYCNADYYSRIVGVRIYEYWGQGTQVTVSS”, for which the “polyreactivity (PSR sort gate)” value is recorded as “low polyreactivity”.

Turning to “QVQLVESGGGLVQAGGSLRLSCAASGLTFDGNAMGWYRQAPGKERELVAAITSSGGNTYYADSVKGRFTISRDNAKNTVYLQMNSLKPEDTAVYYCAAGGYRWSARTWSWVRYDYWGQGTQVTVSS”, the “polyreactivity (PSR sort gate)” value is given as “high polyreactivity”. With “QVQLVESGGGLVQAGGSLRLSCAASGLTFDHNVMGWYRQAPGKERELVAAISRSGSSTYYADSVKGRFTISRDNAKNTVYLQMNSLKPEDTAVYYCAASDKRIYNLLRRYYYWGQGTQVTVSS”, the “polyreactivity (PSR sort gate)” value is reported as “high polyreactivity”. With “QVQLVESGGGLVQAGGSLRLSCAASGLTFDQYVMGWYRQAPGKERELVAAISRRGGGTYYADSVKGRFTISRDNAKNTVYLQMNSLKPEDTAVYYCNTDQAWRSWRGNYPFLTGNYWGQGTQVTVSS”, the “polyreactivity (PSR sort gate)” value is “high polyreactivity”. Turning to “QVQLVESGGGLVQAGGSLRLSCAASGLTFDRYAKGWYRQAPGKERELVAAITSGGSTYYADSVKGRFTISRDNAKNTVYLQMNSLKPEDTAVYYCAALVFRGRSFTHDYWGQGTQVTVSS”, the “polyreactivity (PSR sort gate)” value is recorded as “high polyreactivity”. On to “QVQLVESGGGLVQAGGSLRLSCAASGLTFDTYAMGWYRQAPGKERELVAAISIGGRTNYADSVKGRFTISRDNAKNTVYLQMNSLKPEDTAVYYCAVGAVVPGRRRRTYYYWGQGTQVTVSS”, for which the “polyreactivity (PSR sort gate)” value was “high polyreactivity”. On to “QVQLVESGGGLVQAGGSLRLSCAASGLTFDVYAMGWYRQAPGKERELVAALSTSGGRTYSADSVKGRFTISRDNAKNTVYLQMNSLKPEVTAVYYCNAGYDYYWRYYWYWYAFNYWGQGTQVTVSS”, for which the “polyreactivity (PSR sort gate)” value was “high polyreactivity”. For the sequence “QVQLVESGGGLVQAGGSLRLSCAASGLTFDWYALGWYRQAPGKERELVAAISWNGVSTDYADSVKGRFTISRDNAKNTVYLQMNSLKPEDTAVYYCNAKGQRNKRWRGYWGQGTQVTVSS”, the “polyreactivity (PSR sort gate)” value was “high polyreactivity”. In the case of “QVQLVESGGGLVQAGGSLRLSCAASGLTFEDYAMGWNRQEPGKEREFVAAISTSGGRTYYADSVKGRFTISRDNAKNTVYLQMNSLKPEDTAVYYCAAGGWYGYVYRFYYWGQGTQVTVSS”, the “polyreactivity (PSR sort gate)” value is “high polyreactivity”.

In the case of “QVQLVESGGGLVQAGGSLRLSCAASGLTFEKYAMGWYRQAPGKERELVAAISQDGGSTYYADSVKGRFTISRDNAKNTVYLQMNSLKPEDTAVYYCAAEDPDSWLPWDLFDYWGQGTQVTVSS”, the “polyreactivity (PSR sort gate)” value is “low polyreactivity”. On to “QVQLVESGGGLVQAGGSLRLSCAASGLTFEWYTMGWYRQAPGKERALVAVITVSGSSTYYADSVKGRFSISRDNAKNTVYFQMNSLKPEDTAVYYCNADWSFYSYTLYDYWGQGTQVTVSS”, for which the “polyreactivity (PSR sort gate)” value is on record as “low polyreactivity”. The value for “QVQLVESGGGLVQAGGSLRLSCAASGLTFFNYAMGWNRQAPGKERELVASITSGGSTNYADSVKGRFTISRDNAKNTVYLQMNSLNPEDTAVYYCAARYPYRTYKLSHSYARPYGYWGQGTQVTVSS” was “high polyreactivity”. As to “QVQLVESGGGLVQAGGSLRLSCAASGLTFFYYAMGWYRQAPGKERELVAGISRSGGSTYYADSVKGRFTISRDNAKNTVYLQMISLKPEDTAVYYCAKRTLVASYIYREGEYWGQGTQVTVSS”, the “polyreactivity (PSR sort gate)” value was “high polyreactivity”. For the sequence “QVQLVESGGGLVQAGGSLRLSCAASGLTFFYYAMGWYRQAPGKERELVASISSSGITNYADSVKGRFTISRDNAKNTVYLQMNSLKPEDTAVYYCASQYYISPLRYYSPTGGYWGQGTQVTVSS”, the “polyreactivity (PSR sort gate)” value is “high polyreactivity”. As to “QVQLVESGGGLVQAGGSLRLSCAASGLTFGDYTMGWYRQAPGKERELVAAISTSGGSTYYADSVKGRFTISRDNAKNTVYLQMNSLKPEDTAVYYCNARRTHTRSHYYYWGQGTQVTVSS”, the “polyreactivity (PSR sort gate)” value was “high polyreactivity”.
